This series addresses T1, MS2 coat protein (fluorescently labelled) (MS2 virus) (UniProt P03612).
T1 sequence: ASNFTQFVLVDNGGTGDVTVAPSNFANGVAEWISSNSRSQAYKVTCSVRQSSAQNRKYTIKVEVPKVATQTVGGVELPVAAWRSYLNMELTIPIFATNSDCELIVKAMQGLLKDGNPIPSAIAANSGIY
Briefly: RNA-MaP. The settings on record: RNA-MaP on MiSeq chip: MS2 protein 0.7-1,500 nM, incubation 0.8-1.5 h (lowest concentrations) to 10-20 min (highest), buffer and temperature per ref. 14, not ….

“AGUCCACGCUGACGUGGACAAAAGCAUGUACAUGAGGAUCACCCAUGUCAUGUACAAGCUUUUUGCUCGUCUUAAAA” gave a binding signal (200 nM input RNA S1 (on state), scale: fold) of 110.

For “CCGAAAACGGGAACCUUAUUCUUUAUGCAUGUUCAGGAAACUGAGCAUGCAAACAUGAGGAUCACCCAUGUGUUGUGGGAUCAGC [6348262 C85 G11 Eli Fisker mod (ratio sensor, top R2)]”, the binding signal (fold (qARLB, off Kd / on Kd)) stood at 11.

On to “GAUUACGAGAGUGUUAUUCUUUGGAGUGGGACAUGAGGAUCACCCAUGUAAAUGUACAUGUUAGCUGCUUAGCAGUUGACAUGAU [6248647 U62 jandersonlee mod (ratio sensor, top R3)]”, for which the binding signal (fold (qARLB, off Kd / on Kd)) was determined as 34.

For the origin of these results see publication PMC12669046.
